Measured values published in the DeepSol protein solubility set.

assay: soluble on expression in E. coli; label from the status in PepcDB or PDB records

Sequence | soluble on expression in E. coli
MAAAAAARKGGFWQRFAGKGVVQHCQSPTAPLPEACADMLWSNLGLLAAESIVPVLQNWARALKTDGLLFFTCFGRDTLAELKCRLKENGIESRSVMFPDMHDLGDMLAENGFYDPVTDTAKLVLDYKKAETFWADMDTLGIWRAMAWNDENAARSCVGTIFEREGGLGITLETVYGHAVKKLMLPQGENVVQFFPKRLEHHHHHH | soluble
GSKCKCSRKGPKIRYSDVKKLEMKPKYPHCEEKMVIITTKSVSRYRGQEHCLHPKLQSTKRFIKWYNAWNEKRRVYEE | soluble
MSLEDTTITFWHAMNGVQEEALTKLTKDFMKENPKIKVELQNQSAYPDLQAKINSTLTSPKDLPTITQAYPGWLWNAAQDEMLVDLKPYMDDDTIGWKDAEPIREVLLDGAKIDGKQYGIPFNKSTEMLFYNADLLKEYGVEVPKTLEELKEASKTIYEKSNKEVVGAGFDSLNNYYAIGMKNKGVDFNKDLDLTSKDSQEVVDYYRDGIEAGYFRTAGSDKYLSGPFANKKVAMFVGSIAGAGFVQKDAEAGGYEYGVAPRPEKINLQQGTDIYMFDSATPEQRTAAFEFMKFLATPDSQLYWAQQTGYMPILESVLHSDEYKNSKTTKVPAQLENAVKDLFAIPVEENADSAYNEMRTIMESIFASSNKDTRKLLKDATSQFEQAWNQEGHHHHHH | soluble
MSLNVMYKNSCPNCGGDISGDRLLNGLPCEACLPYINGIDDVDHISKVKTLYNILLNNDKIKNYWNLYYNITTFETVFKYFRDKTGYEPWSLQKLWLRRLASNQSFTMSAPTGLGKTTTLMTYSVFIGQDVVYIVPTKSLMEQVCKRLEKLGAQVSCGKIDQKKVSVITISYLNKNADSIVSLKPNFVVIDDADAVIKSGKTTDRLVSLLGIPKDVYESAIQLIRLRNKYYFSNEYTEEVKEKIRELELKIAEFKDKISQLVIASATIRPKGIKQKALRLLTGFEPSSIQLYARNIIDAYTENLDLSIVKELGSGGLILVSKEYGRSKLNEIKKYVEDLGFNAKLAISGRKFLDDFSQGKVDILVGSASYYGVAVRGIDEPKRLKYVIYYGVPKIRAKLFDALSNPFTLLRVGKLIGIDFSKLQNKILILNPSEVQLLKFSIIKGEGHHHHHH | not soluble
MNNYLRKLVEGQHLTEEEMYKAGLLLLNENILESEIAAFLVLLKAKGETAEEIYGLVRALREKALPFSNHIQGAMDNCGTGGDGAQTFNISTTSAFVLAGAGVKVAKHGNRAVSSKTGSADLLEELGVNISSTPNEIDYLLEHVGIAFLFAPAMHPALKRIMKIRKELNVPTIFNLIGPLTNPVNLETQFVGIYKRDMLLPVAQVLQKLGRKQALVVNGSGFLDEASLQGENHVVILKDNEIVETSIEPEKYGFSIVKNEEIRGGNSKENAKITLGVLSGEKSVYRDTVLFNAGLALFANGKAKTIEEGITLAAHSIDSGKALAKLNLLIAASNEELERVN | not soluble
SLPTLVTTQASDIDGSTLLSSQKGSGLGDCDSDARWTWDGRRFVPTSTSTSGLCRLVAAGGAWELPTLVTEVKSSP | soluble
MSLTRISELPPQIRQEIEQLDQYIQKQVQISHHLKADTIDHDELIDSIPRDVAYLLKSESATSQYLKQDLKKISSFKSLIDEDLLDTQTFSVLLQQLLTPGSKISSNDLDKFFQKKIHLYEKKLEDYCRILSDIETAVNGIDTDLFGAPNNPNSTAITADLGSSEAENLLQLKTGLAAIVSTVIEEFTLFMDIAERIAVLHQKTKTLASLSEGHHHHHH | soluble
MAESYEEWKSFALKLDEETGAQEWKFDNSSPYFDAELISYRYTLLKRYRQQHRTLDLIYLLKEGLTYDIANIGHPMLFAATHVGTKKLIEDYIEEVSQSLAYIASSECITFQRKEKIEFFENCEKAYGQPALMFSGGATLGLFHTGVCKALIEQDLMPKVLSGSSAGAIMTGMLGISASEDIQNLLNGEQFFSDAFHFRKLRELIKGNGGIADVHYLKKFLIENLGDLTFEEAFKKSGLNINVAVAPYDATENPRIMNAIMTPNVLVWSAVLASCAVPVLFPPVRLTSKRYDGEHTPYMANTKWVDGSVRSDFPQERMARLYNLNYTIASQVNPHVVPFMQDDARRFRKDVLSWPERILRRQGKVLSMGLMDFTRQRLGAISPVRRLLDHGYGVVGQRYYGDVNIIAKYSLKHYAYTLQNPRPHLFKRLQREGERATWPKISSIETHARIGKTIQHCLEVLRFEEKKQQPESYYAEALEHHHHHH | soluble
MAHHHHHHMKVDSLLSPRSAFSTENDPCGSVESVANDVASASDVVVAYPQPGKRWSRIIAGPELVGMSLKENQIKDGKALCIYGHCFDDGIIDYITNEVLPEARVLTKVEIAETKFSSAGMKILLRALWTNSPCEQMEELLLHDVHLHFEETLQLKEVIMKNRKCLRRLVLQRCHMDDSAAEPIVQAISHCEQLREVNFLDNNIVHALAIPTEREDIFPPTLQIFDISGNRIEPKHFTGLGNALRRCMANLHEVYLARCCVTESGLKTLLCGGLYNSQVLSVLNVSAGRLLHTAGKVLSSVISECPNLQRVYMQDNLLDVEGAAQIALVIPYAKKLTVLGMGRCHLGGRGARYIAEAVKQSASLRELDLSGNGVTDEDVHRICACNDDASFRLSYLDLSDNPLTEDCRCSLETLLEHQKDNSCIVVVRGTGLAVVSSYMEYHNKPTPG | not soluble
MVIHQIKILQSVATSIVEGGRGVTGTPFPNQPDKPLKLYEFEGSPFSRRVREVLTLLNLDVEIYPCPKGGQKYRAIVKEKGGKLQFPFLIDENTGDQLYESQKIIHHLFKHYGKTGHTPEKYQHYPKIPVIGLIATLLNAARGVWVNKKIIHRAAPEQLLELWSFEASPYSRVVRDILTELEIPYVLHNVSKERWQDMGPAILRLKPGPYIPLAGGKRDKMLPMMQGKMQVPYLVDPNTGIHLFESAQIVAYLKKQYGEV | not soluble
MGSDKIHHHHHHMNNTIPRWRGFNLLEAFSIKSTGNFKEEDFLWMAQWDFNFVRIPMCHLLWSDRGNPFIIREDFFEKIDRVIFWGEKYGIHICISLHRAPGYSVNKEVEEKTNLWKDETAQEAFIHHWSFIARRYKGISSTHLSFNLINEPPFPDPQIMSVEDHNSLIKRTITEIRKIDPERLIIIDGLGYGNIPVDDLTIENTVQSCRGYIPFSVTHYKAEWVDSKDFPVPEWPNGWHFGEYWNREKLLEHYLTWIKLRQKGIEVFCGEMGAYNKTPHDVVLKWLEDLLEIFKTLNIGFALWNFRGPFGILDSERKDVEYEEWYGHKLDRKMLELLRKY | soluble
MGSDKIHHHHHHEAKGHQTVKIDTVVSADKQTFLQFPGKVKAAQDISLAFRVSGTISKIHVKDGARVQEGQLLAELDPTDYQVQLDATEAEYQQIKAEAERVMALYKDNGTTPNANDKAVYGLKQITAKYKHHKDQLAYTRLYAPFNGYVQKRLFEAHETIGAGMPVIAMISGGTPEVEINLPAAEYIRREQFDNYHCTFDIYPGETYPLKLISVTPKANANQLYTMRLQVVPGTRAIPSPGMNTMVTILCRTEQENTLSVPTGAILQKEGKAYVFVFHPSSNTVHRQEVSILRLLNNGHSLITSRQLQPGEQIVSSGVHHIEDGEIVKPLSPVTNTNIGGLL | not soluble
MGSDKIHHHHHHMIGKFFASINLSDVAAMAGIPISFMTAYSISPEIEISFLEDIESGIMKVLKMYDVDFIGGDLKEGMDLILTGIAIGKQKKTLTRKRSDIGRKQMVAYTNKLGRAASGYIFYKSGYDSVEGINMMLGITPRLEEARIISEYGAKFMMDLSDGLYSSLNQMKADYGVGFKIVEDEVVYDDSARKAAEISGASVYDIACGYGGDYELLFTVPEENYRDFAQAMESNNIEVHFIGETWEGENIVFDGKTWTKMKDEGYEHFRPKPQLGEIR | not soluble
MSSGLEDNLQLLGGNVTLLEQEAQKLANETKAGVYVVTTDSSTPASQMAKTYLADKVGAKNNGVVLVINMNLRKVYIWATGNLKYYLPSSRIEKTLDIVQPELTDNNYYQAVSGFFDQVSKYYQAGLEHHHHHH | not soluble
MQVSRFLTSFHRLSTALPASTEKYYFETVKHDNRNEVVDFLNNNFRVEEPLSKAAGMTESDIQSCFDGVFERVLKNEVSILARSKQSDEIVGCMLNSVWKRNDPKKNEDEAEDFEFGGDRKGVMTIGEILNELHESFWKLRPDQHTVLHFEISSVNKNHQRQGLASKFMNWTEKKELLKVIEASSIVAEASSLANQILLSKRGYETVASTLLSSRIDVNGKQILVCDDGTDRVDLVFKELN | not soluble
MGSDKIHHHHHHMTLDSIERAIADIANGKPVVVVDSEDRENEGDLIFAADKATPELVAFMVRYSSGYICASLTSEECDRLQLPPMTSHNEDARGTAYAVTVDANTGTTGISATSRADTLRKLADSQFGPQDFTRPGHVVPLRAKAGGVLERAGHTEAAVDLARMAGLNPAGVLCEVVSEDDPTDMARAPELRRFADRHDLALISIEQLIEWRRRYELLVERAVSTQLPTEFGRFTAVGYRGIVDGVEHIALVAGDITSDEGKDVLLRVHSECLTGDVLGSRRCDCGPQLQASLRAISERGRGVVVYLRGHEGRGIGLLHKLQAYHLQDEGADTVDANKALGLPVDARNYSVAAHILRDLGVQSVCLLTNNPEKSLELERYGVKVTGREPVKVEVHEDNIRYLTTKRDRMNHDLPWIAEYKKEQS | not soluble
MNTISGTHFNYHQVCRRKLWLFSAGITMEHTSDLVYEGKLIHETTYQQRPERYQELELDGIKIDFYDAKNRVVHEVKKSNKISPAHRLQLLYYLYVLERNGVLGATGILEYPTLRKKEEVILSDIDRERIREIEQEILQIISHEDCPPVIDSGICKNCSYYEFCFSGEEQ | not soluble
MTSRTPLVSVLPDFPWDSLASAKAKAASHPDGIVNLSVGTPVDPVAPSIQIALAEAAGFSGYPQTIGTPELRAAIRGALERRYNMTKLVDASLLPVVGTKEAIALLPFALGISGTVVIPEIAYPTYEVAVVAAGCTVLRSDSLFKLGPQIPSMMFINSPSNPTGKVLGIPHLRKVVKWAQENNVILAADECYLGLGWDDENPPISILDPRVCDGDHTNLIAIHSLSKTSNLASYRAGYLVGDPALIGELTEVRKNLGLMVPFPIQQAMIAALNDDDQEAGQKLTYAIRRAKLMRALLESGFQVDNSEAGLYLWATREEPCRDTVDWFAERGILVAPGDFYGPRGAQHVRVAMTETDERVDAFVSRLS | soluble
MSLGRNEPVIGITPSFDYNENKMYINNIYCEAIILSGGMPVLLPVTEDEGLLSQMVEEFDGFLLSGGPDVDAVHWGEWNYSYNGEISPHRDKMELFIAKEAVAKDKPIFGICRGIQVLNVALGGTLYQDIYSQNKEKRLIKHSQNAPRWYPVHKVMLKAGSKVRNAHGAESIAVNSFHHQAVREPAPDFIVTGTSEDGIIEAIEHKNCKFAVGVQWHPEHMWKRDLSFLNIFKYFVSSCLEGHHHHHH | soluble
QVSDEDVMLMIRQGAKKGVFESVEYEMISRIFRMSDKRASALMTPRNEIEWLDLERPDEELVARIKASGRSRFPVAKGSLDELQGVVRSLDLVNFSLSSKGSIREAIRASMKPPLFVPESVPAFHVLELFKKNRAHMALVIDEHGSVQGAITLTDVLESIVGDVPADDMEGD | not soluble
SLSKLMLRHKAKKIDHVAIAVLDLEQAIGYFSMMGFTLSDRMTTTGAHSAMHSAVMEAGPIKFVLLEGANETSQITRFINEYGPGPQHIAIEVENVESLCKELEKQGLDFSTKTIKGPELIQRFTVRCPNSGVMIEFIERNEEEGFSEQNVEDLFRQLEASDAYEG | soluble
VEVESFLVHPGDLLQLRCRLRDDVQSINWLRDGVQLAESNRTRITGEEVEVQDSVPADSGLYACVTSSPSGSDTTYFSVNVSDALP | soluble
MRACLKCKYLTNDEICPICHSPTSENWIGLLIVINPEKSEIAKKAGIDIKGKYALSVKE | soluble
